According to patent publication US20240024501A1 (BONUM THERAPEUTICS, published 2024):
Where a chain is given by its changes, count along the chain named. Read-outs that look alike come from different tables or passages of the source.

Experiments:
[1] = target: T1, LRRC15-hFc (Sino Biologicals, 15786-H02H) (UniProt Q8TF66 22-538); assay: ELISA (Example 33): cell-free expressed scFv on LRRC15; x axis Log (concentration, nM)
T1 construct: also called LRRC15-Fc
T1 sequence (looked up): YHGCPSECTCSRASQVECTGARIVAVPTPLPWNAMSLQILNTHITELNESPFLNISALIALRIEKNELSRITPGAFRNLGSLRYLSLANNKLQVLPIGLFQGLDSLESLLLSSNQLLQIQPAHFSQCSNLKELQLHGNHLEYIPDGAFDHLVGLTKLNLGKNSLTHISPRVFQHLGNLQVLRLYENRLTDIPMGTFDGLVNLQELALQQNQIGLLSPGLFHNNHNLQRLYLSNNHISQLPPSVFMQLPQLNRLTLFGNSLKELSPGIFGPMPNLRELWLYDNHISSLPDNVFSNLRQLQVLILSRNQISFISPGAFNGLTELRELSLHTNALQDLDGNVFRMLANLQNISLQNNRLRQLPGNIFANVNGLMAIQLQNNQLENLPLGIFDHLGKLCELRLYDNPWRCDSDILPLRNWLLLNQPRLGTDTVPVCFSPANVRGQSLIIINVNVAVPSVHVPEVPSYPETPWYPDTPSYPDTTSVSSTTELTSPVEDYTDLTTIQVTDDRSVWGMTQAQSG

AF33 [2] = target: T2, AF33; assay: ELISA: scFv captured at saturating level on anti-V5, titrated biotinylated AF33 (IL-15 fusion), streptavidin-HRP
T2 construct: also called IL-15; IL15

[3] = target: T3, PDL1-hFc-Avi (Acro Biosystems, PDL-H82F2) (UniProt Q9NZQ7 19-238, biotinylated); assay: ELISA: scFv captured at saturating level on anti-V5, titrated PDL1-hFc-Avi, streptavidin-HRP
[4] = target: T3, PDL1-hFc-Avi (Acro Biosystems, …); assay: as above; remark: listed apart in the source
AF33 [5] = target: T2, AF33; assay: ELISA: scFv captured at saturating level on anti-V5, titrated biotinylated AF33 (IL-15 fusion), streptavidin-HRP; remark: listed apart in the source
PD-L1 (Eu-labeled) = target: T4, PD-L1 (Eu-labeled) (UniProt Q9NZQ7 19-238, limits assumed, Eu label); assay: HTRF
T4 construct: also called Eu-labeled PD-L1

AF3099 = target: T5, AF3099; assay: ELISA as in Example 9: dilution series of the IFN-scFv complex captured on anti-V5, probed with IFNAR2-Biotin with or without PD-L1, streptavidin-HRP
T5 construct: IFNα-linker-DBA scFv variant complex

human IL-2 [6] = target: T6, human IL-2 (human, UniProt P60568 21-153, biotin label in the IL2RB blocking assay); assay: HTRF
T6 construct: also called biotin-labeled IL-2 (Acro Biosystems IL2-H82E4)

PD-1 = PD-1 (human, UniProt Q15116 25-167, limits assumed); assay: HTRF
human IL-2 [7] = target: T6, human IL-2; assay: HTRF, IL-2:Fc-IL2RB

T6 sequence (P60568 21-153 limits assumed): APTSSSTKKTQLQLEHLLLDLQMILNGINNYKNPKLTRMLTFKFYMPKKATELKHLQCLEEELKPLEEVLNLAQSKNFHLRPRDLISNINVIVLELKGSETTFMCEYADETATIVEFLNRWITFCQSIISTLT
PD-1, sequence (Q15116 25-167 limits assumed): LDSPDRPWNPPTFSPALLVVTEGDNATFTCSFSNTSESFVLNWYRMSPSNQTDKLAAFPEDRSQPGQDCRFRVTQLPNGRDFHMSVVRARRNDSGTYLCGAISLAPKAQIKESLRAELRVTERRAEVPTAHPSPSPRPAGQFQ

B1: A03 (scFv)
scFv: MSTSTQVQLVQSGAEVKKPGASVKVSCKASGYTFTGYYMHWVRQAPGQGLEWMGWMDPNNDDADYAQRFQGRVTMTRDTSTSTVYMELSSLRSEDTAVYYCASLAAAGPYYYYGMDVWGQGTLVTVSSASGGGGSGGGGSGGGGSHASDIQMTQSPSSLSASVGDRVTITCRASQSINNYLNWYQQKPGKAPKLLIYGASNLETGVPSRFSGSGSGTDFTLTISSLQPEDFATYYCQQSYGTPLTFGGGTKVEIKRAAAGSGSEQKLISEEDLGKPIPNPLLGLDST
[1]
  binding result: binds

B2: B07 (scFv)
scFv: MSTSTQVQLVQSGAEVKKPGASVKVSCKASGYTFTGYYMHWVRQAPGQGLEWMGWMDPNNDDADYAQRFQGRVTMTRDTSTSTVYMELSSLRSEDTAVYYCASLAAAGPYYYYGMDVWGQGTLVTVSSASGGGGSGGGGSGGGGSHASDIQMTQSPSSLSASVGDRVTITCQASQDISNYLNWYQQKPGKAPKLLIYGASILEAGVPSRFSGSGSGTDFTLTISSLQPEDFATYYCQQSYSAPITFGQGTRLEIKRAAAGSGSEQKLISEEDLGKPIPNPLLGLDST
[1]
  binding result: binds

B3: i47_A11 (scFv)
scFv: MSTSTQVQLVQSGAEVKKPGSSVKVSCKASGYTFTSYDINWVRQAPGQGLEWMGTINPSDGDTTYAQKFQGRVTITADESTSTAYMELSSLRSEDTAVYYCARVGGWGIYYYYGMDVWGQGTLVTVSSASGGGGSGGGGSGGGGSHASDIQMTQSPSSLSASVGDRVTITCRASQSINSWLAWYQQKPGKAPKLLIYAASSLQSGVPSRFSGSGSGTDFTLTISSLQPEDFATYYCQQTYTVPFSFGQGTKLEIKRAAAGSGSEQKLISEEDLGKPIPNPLLGLDST
[1]
  binding result: binds

B4: AF636 (scFv)
scFv: MSTSTEQKLISEEDLQVQLVQSGAEVKKPGASVKVSCKASGYSFTSYYLHWVRQAPGQGLEWMGRISPRSGGTKNAQNFQGRVTMTRDTSTSTVYMELSSLRSEDTAVYYCVRSLFPTIFGVEVAFDIWGQGTLVTVSSASGGGGSGGGGSGGGGSHASDIQMTQSPSSLSASVGDRVTITCRASQSISSWLAWYQQKPGKAPKLLIYYASSLQSGVPSRFSGSGSGTDFTLTISSLQPEDFATYYCQQGYQYPYTFGQGTKLEIKGKPIPNPLLGLDST
AF33 [2]
  binding result: binds
[3]
  binding result: binds

B5: AF635 (scFv)
scFv: MSTSTEQKLISEEDLQVQLVQSGAEVKKPGASVKVSCKASGYTFTGYYIHWVRQAPGQGLEWMGIINPSGGSTRYAQKFQGRVTMTRDTSTSTVYMELSSLRSEDTAVYYCARSLFPTIFGVEVAFDIWGQGTLVTVSSASGGGGSGGGGSGGGGSHASDIQMTQSPSSLSASVGDRVTITCRASQSIRTYLNWYQQKPGKAPKLLIYSASNLQSGVPSRFSGSGSGTDFTLTISSLQPEDFATYYCQQANSFPFTFGPGTKVDIKGKPIPNPLLGLDST
[4]
  binding result: binds
AF33 [5]
  binding result: binds

B6: PDL1-IFN-R01-B12 (scFv)
scFv: QVQLVQSGAEVKKPGASVKVSCKASGNTFTDYYMHWVRQAPGQGLEWMGWMNPNSGNTGYAQKFQGRVTMTRDTSTSTVYMELSSLRSEDTAVYYCARSLFPTIFGVEVAFDIWGQGTLVTVSSASGGGGSGGGGSGGGGSHASDIQMTQSPSSLSASVGDRVTITCQASQDISNYLNWYQQKPGKAPKLLIYAASSLQSGVPSRFSGSGSGTDFTLTISSLQPEDFATYYCQQSYSTPPTFGQGTRLEIK
notes: expressed cell-free as Myc tag + scFv + V5 tag
PD-L1 (Eu-labeled)
  PDL1 Binding (HTRF signal): 2980

B7: PDL1-IFN-R01-A11 (scFv)
scFv: B6 scFv with N27G, T30S, D31S, S174T, Q199E, T238I, P240I
notes: as for B6
PD-L1 (Eu-labeled)
  PDL1 Binding (HTRF signal): 2960

B8: PDL1-IFN-R01-B09 (scFv)
scFv: B6 scFv with N27G, D31G, M51V, T238P, R247K
notes: as for B6
PD-L1 (Eu-labeled)
  PDL1 Binding (HTRF signal): 1380

B9: i47_A12 (scFv)
scFv: MSTSTQVQLVQSGAEVKKPGSSVKVSCKASGYTFINNDINWVRQAPGQGLEWMGGTIPIFGVHIYAQKFQGRVTITADESTSTAYMELSSLRSEDTAVYYCVSSVGAGAYYYYGMDVWGQGTLVTVSSASGGGGSGGGGSGGGGSHASDIQMTQSPSSLSASVGDRVTITCQASQDISNYLNWYQQKPGKAPKLLIYAASSLQSGVPSRFSGSGSGTDFTLTISSLQPEDFATYYCQQSYSLPYTFGQGTRLEIKRAAAGSGSEQKLISEEDLGKPIPNPLLGLDST
[1]
  binding result: binds

B10: IFNAR2-Biotin (receptor)
chain: ISYDSPDYTDESCTFKISLRNFRSILSWELKNHSIVPTHYTLLYTIMSKPEDLKVVKNCANTTRSFCDLTDEWRSTHEAYVTVLEGFSGNTTLFSCSHNFWLAIDMSFEPPEFEIVGFTNHINVMVKFPSIVEEELQFDLSLVIEEQSEGIVKKHKPEIKGNMSGNFTYIIDKLIPNTNYCVSVYLEHSDEQAVIKSPLKCTLLPPGQESESAESAK
modifications: biotinylated
notes: also called biotinylated interferon receptor (IFNAR2)
AF3099
  binding result: no binding (tested: 0.5 % IFN-scFv)

B11: Anti-IFN control (SEQ ID NO: 30) (scFv)
scFv: EVQLVESGGGLVQPGGSLRLSCATSGYTFTEYIIHWVRQAPGKGLEWVASINPDYDITNYNQRFKGRFTISLDKSKRTAYLQMNSLRAEDTAVYYCASWISDFFDYWGQGTLVTVSSASGGGGSGGGGSGGGGSHASDIQMTQSPSSLSASVGDRVTITCRASQSVSTSSYSYMHWYQQKPGKAPKVLISYASNLESGVPSRFSGSGSGTDFTLTISSLQPEDFATYYCQHSWGIPRTFGQGTKVEIK
notes: control scFv; also called Anti-IFNα control
PD-L1 (Eu-labeled)
  PDL1 Binding (HTRF signal): 416

B12: PDL1-IFN-R01-C08 (scFv)
scFv: QVQLVQSGAEVKKPGASVKVSCKASGGTFSSYAISWVRQAPGQGLEWMGIIDPSVTYTRYAQKFQGRVTMTRDTSTSTVYMELSSLRSEDTAVYYCARSLFPTIFGVEVAFDIWGQGTLVTVSSASGGGGSGGGGSGGGGSHASDIQMTQSPSSLSASVGDRVTITCQASQDISNYLNWYQQKPGKAPKLLIYGASTLQSGVPSRFSGSGSGTDFTLTISSLQPEDFATYYCQQTYSTPITFGQGTKVEIK
notes: as for B6
PD-L1 (Eu-labeled)
  PDL1 Binding (HTRF signal): 2750

B13: PDL1-IFN-R01-C11 (scFv)
scFv: QVQLVQSGAEVKKPGASVKVSCKASGGTFSSYAISWVRQAPGQGLEWMGWMDANNGNTGYAQKFQGRVTMTRDTSTSTVYMELSSLRSEDTAVYYCARSLFPTIFGVEVAFDIWGQGTLVTVSSASGGGGSGGGGSGGGGSHASDIQMTQSPSSLSASVGDRVTITCRASQSVSSYLNWYQQKPGKAPKLLIYKASSLESGVPSRFSGSGSGTDFTLTISSLQPEDFATYYCQQSSSTPLSFGGGTKVEIK
notes: as for B6
PD-L1 (Eu-labeled)
  PDL1 Binding (HTRF signal): 3040

B14: PD1-R07-A05 (scFv)
scFv: QVQLVQSGAEVKKPGASVKVSCKASGYTFTTYYVHWVRQAPGQGLEWMGIINPSGGSTSYAQNFQGRVTMTRDTSTSTVYMELSSLRSEDTAVYYCASGWDVWGQGTTVTVSSASGGGGSGGGGSGGGGSHASEIVMTQSPATLSVSPGERATLSCRASQSVNTYLAWYQQKPGQAPRLLIYGASTRATGIPARFSGSGSGTEFTLTISSLQSEDFAVYYCQQYGSSPVTFGQGTRLEIK
Human IL-2 [6]
  IL2 Binding (HTRF signal): 19
PD-1
  PD1 Binding (HTRF signal): 653
Human IL-2 [7]
  IL2RB Blocking (HTRF signal): 1730

B15: PDL1-IFN-R01-A06 (scFv)
scFv: QVQLVQSGAEVKKPGASVKVSCKASGGTFSSYAISWVRQAPGQGLEWVGWMDPKSGNTGYAQKFQGRVTMTRDTSTSTVYMELSSLRSEDTAVYYCARSLFPTIFGVEVAFDIWGQGTLVTVSSASGGGGSGGGGSGGGGSHASDIQMTQSPSSLSASVGDRVTITCQASQDINNYLNWYQQKPGKAPKLLIYKASSLEPGVPSRFSGSGSGTDFTLTISSLQPEDFATYYCQKSNDVPFTFGQGTKVEIK
notes: as for B6
PD-L1 (Eu-labeled)
  PDL1 Binding (HTRF signal): 2780
